This note sets out measurements from patent US20120315284A1 (KOREA RESEARCH INSTITUTE OF BIOSCIENCE AND BIOTECH, published 2012).

The chains are these.
T1: MKK7 (full length MKK7 expressed from the pGST vector in HEK293T cells) (human, UniProt O14733 1-419)
T1 construct: also called full length MKK protein; not shown: GST tag of the pGST (pEBG) vector
T1 sequence: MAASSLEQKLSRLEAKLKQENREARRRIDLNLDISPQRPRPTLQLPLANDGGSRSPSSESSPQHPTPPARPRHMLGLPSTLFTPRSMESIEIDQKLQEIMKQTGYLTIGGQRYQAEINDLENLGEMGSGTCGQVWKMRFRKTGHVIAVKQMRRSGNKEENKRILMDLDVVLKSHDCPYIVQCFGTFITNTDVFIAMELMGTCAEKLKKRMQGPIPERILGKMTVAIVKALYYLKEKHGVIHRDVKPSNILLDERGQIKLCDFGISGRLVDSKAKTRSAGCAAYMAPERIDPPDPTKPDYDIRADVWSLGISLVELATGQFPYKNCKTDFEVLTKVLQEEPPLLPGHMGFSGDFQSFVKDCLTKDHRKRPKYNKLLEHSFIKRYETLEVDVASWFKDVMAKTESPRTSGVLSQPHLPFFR

T2: MKK7 in cell lysate (immunoprecipitated with MKK7 antibody; the cells' own MKK7) (human, UniProt O14733 2-419, limits assumed)
T2 sequence: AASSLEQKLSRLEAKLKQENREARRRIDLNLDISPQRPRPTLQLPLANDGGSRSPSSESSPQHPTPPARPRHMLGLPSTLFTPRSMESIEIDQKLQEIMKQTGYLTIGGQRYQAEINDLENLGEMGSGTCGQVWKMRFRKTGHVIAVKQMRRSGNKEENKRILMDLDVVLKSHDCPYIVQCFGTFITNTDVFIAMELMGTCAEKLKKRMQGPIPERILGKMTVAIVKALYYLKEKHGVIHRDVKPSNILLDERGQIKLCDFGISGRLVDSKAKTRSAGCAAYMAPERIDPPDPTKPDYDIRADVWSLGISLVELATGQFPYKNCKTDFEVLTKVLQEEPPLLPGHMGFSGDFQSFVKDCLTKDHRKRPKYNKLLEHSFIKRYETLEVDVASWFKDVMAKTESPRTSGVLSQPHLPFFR

T3: MKK7 fragment D1 (pGST vector, HEK293T) (human, UniProt O14733 85-419, limits assumed)
T3 construct: also called MKK7-D1; not shown: GST tag of the pGST expression vector
T3 sequence: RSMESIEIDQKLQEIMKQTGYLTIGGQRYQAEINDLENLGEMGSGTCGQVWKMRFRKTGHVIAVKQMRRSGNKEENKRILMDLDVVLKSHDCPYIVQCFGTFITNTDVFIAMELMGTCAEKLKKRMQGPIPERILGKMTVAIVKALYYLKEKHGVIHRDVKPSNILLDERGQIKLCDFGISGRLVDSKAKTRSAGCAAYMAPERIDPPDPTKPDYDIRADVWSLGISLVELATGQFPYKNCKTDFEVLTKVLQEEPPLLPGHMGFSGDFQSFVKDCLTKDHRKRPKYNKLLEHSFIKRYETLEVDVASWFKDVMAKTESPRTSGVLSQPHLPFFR

B1: TIP41 fragment D5 (pHA vector, HEK293T) (other)
chain: MMIHGFQSSHRDFCFGPWKLTASKTHIMKSADVEKLADELHMPSLPEMMFGDNVLRIQHGSGFGIEFNATDALRCVNNYQGMLKVACAEEWQESRTEGEH
notes: also called TIP41-D5; not shown: HA tag of the pHA vector
B2: MKK7 fragment D5 (pGST vector, HEK293T) (other)
chain: AGCAAYMAPERIDPPDPTKPDYDIRADVWSLGISLVELATGQFPYKNCKTDFEVLTKVLQEEPPLLPGHMGFSGDFQSFVKDCLTKDHRKRPKYNKLLEHSFIKRYETLEVDVASWFKDVMAKTESPRTSGVLSQPHLPFFR
notes: also called MKK7-D5; not shown: GST tag of the pGST expression vector
B3: TIP41 fragment D1 (pHA vector, HEK293T) (other)
chain: MMIHGFQSSHRDFCFGPWKLTASKTHIMKSADVEKLADELHMPSLPEMMFGDNVLRIQHGSGFGIEFNATDALRCVNNYQGMLKVACAEEWQESRTEGEHSKEVIKPYDWTYTTDYKGTLLGESLKLKVVPTTDHIDTEKLKAREQIKFFEEVLLFEDELHDHGVSSL
notes: also called TIP41-D1; not shown: HA tag of the pHA vector
B4: TIP41 fragment D4 (pHA vector, HEK293T) (other)
chain: MLKVACAEEWQESRTEGEHSKEVIKPYDWTYTTDYKGTLLGESLKLKVVPTTDHIDTEKLKAREQIKFFEEVLLFEDELHDHGVSSL
notes: also called TIP41-D4; not shown: HA tag of the pHA vector
B5: TIP41 in cell lysate (immunoprecipitated with TIP41 antibody; the cells' own TIP41) (other)
chain: MMIHGFQSSHRDFCFGPWKLTASKTHIMKSADVEKLADELHMPSLPEMMFGDNVLRIQHGSGFGIEFNATDALRCVNNYQGMLKVACAEEWQESRTEGEHSKEVIKPYDWTYTTDYKGTLLGESLKLKVVPTTDHIDTEKLKAREQIKFFEEVLLFEDELHDHGVSSLSVKIRVMPSSFFLLLRFFLRIDGVLIRMNDTRLYHEADKTYMLREYTSRESKISSLMHVPPSLFTEPNEISQYLPIKEAVCEKLIFPERIDPNPADSQKSTQVE
notes: also called TIPP41
B6: TIP41 (full length TIP41 protein expressed from the pHA vector in HEK293T cells) (other)
chain: B5 chain
notes: Cloned from liver cancer cell RNA into pHA; also called TIPRL; TOR Signaling Pathway Regulator-Like; not shown: HA tag of the pHA vector (pcDNA3.1 with HA tag)
B7: TIP41 fragment D2 (pHA vector, HEK293T) (other)
chain: MMIHGFQSSHRDFCFGPWKLTASKTHIMKSADVEKLADELHMPSLPEMMFGDNVLRIQHGSGFGIEFNATDALRCVNNYQGMLKVACAEEWQESRTEGEHSKEVIKPYDWTYTTDYKGTLLGESLKLKVVPTTDHIDTEKLKAREQIKFFEEVLLFEDELHDHGVSSLSVKIRVMPSSFFLLLRFFLRIDGVLIRMNDTRLYHEADKTYMLREYTSRESKISSLMHVPPS
notes: also called TIP41-D2; not shown: HA tag of the pHA vector

Experiment [1] has as its target T1, MKK7 (full length MKK7 expressed from …). In words: GST pull-down from HEK293T lysate, Western blot. Background: In western blotting, separated proteins are transferred to a membrane and probed.
In experiment [2] the target is B6. The experiment can be described thus: GST pull-down from HEK293T lysate, Western blot.
Experiment [3] addresses T2, MKK7 in cell lysate (immunoprecipitated …). The experiment can be described thus: immunoprecipitation (legend of FIG. 11B). As to the method:
In order to identify interaction between TIP41 and MKK7, each antibody was used to perform immunoprecipitation, and binding between TIP41 and MKK7 was identified with Western Blotting. Immunoprecipitation is done by adding about 2 μg antibody of protein to be precipitated into 1 mg cell lysate and reacted for about 2 hours in about 4° C., and add about 30 μl Protein G sepharose bead into each and react for about 12 hours in about 4° C. Afterwards, about 1 ml PBST[0.1% Tween20 included PBS] buffer was added for washing, and the procedure was repeated for about 4 times. Then 100 μl 1× sample buffer (for Western Blotting) was added into the washed bead, and then it was boiled for about 5 minutes in about 95° C. heating block, and was cooled in ice for about 2 minutes. Afterwards, Western Blotting was performed using MKK7 and TIP41 antibody.

The target of experiment [4] is T3, MKK7 fragment D1 (pGST vector, HEK293T). The experiment can be described thus: GST pull-down from HEK293T lysate, Western blot.

On to B1, for which, in experiment [1], the binding result was “no binding”. Take B2: the binding result in experiment [2] is “no binding”. Take B3: the binding result in experiment [1] is “no binding”. Take B4: the binding result in experiment [1] was “no binding”. Regarding B5, the binding result in experiment [3] is on record as “binds”.

For the molecule B6, in experiment [4], the binding result is “no binding”. In the case of B7, the binding result in experiment [1] is “no binding”.
